According to US7022818 (Janssen / Centocor, dated 2006):

T1: human GFRα-2-IgGFc fusion protein (human, UniProt O00451 20-431)
T1 construct: range 20-431; not shown: 243 amino acid residue COOH-terminal human IgG1-Fc fusion domain from vector Signal pIg plus (R&D Systems); exact limits
T1 sequence (looked up): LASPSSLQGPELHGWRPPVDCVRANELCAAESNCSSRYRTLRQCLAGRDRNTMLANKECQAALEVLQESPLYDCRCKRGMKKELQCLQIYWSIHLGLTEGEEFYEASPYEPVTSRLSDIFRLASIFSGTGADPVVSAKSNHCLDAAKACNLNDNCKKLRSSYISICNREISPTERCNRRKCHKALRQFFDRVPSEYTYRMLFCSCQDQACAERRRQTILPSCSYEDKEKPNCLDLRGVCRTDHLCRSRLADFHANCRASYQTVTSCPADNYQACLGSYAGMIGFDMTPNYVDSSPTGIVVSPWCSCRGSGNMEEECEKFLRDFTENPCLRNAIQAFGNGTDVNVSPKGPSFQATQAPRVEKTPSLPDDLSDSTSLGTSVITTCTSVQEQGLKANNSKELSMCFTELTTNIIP

B1: NH2-terminally 6His-tagged recombinant human enovin/artemin (ligand)
chain: HHHHHHAGGPGSRARAAGARGCRLRSQLVPVRALGLGHRSDELVRFRFCSGSCRRARSPHDLSLASLLGAGALRPPPGSRPVSQPCCRPTRYEAVSFMDVNSTWRTVDRLSATACGCLG
notes: Immobilised on a CM5 chip by amine coupling; also called EVN/ART; EVN/ARTN
B2: recombinant human GDNF (ligand, UniProt P39905 78-211, looked up)
chain: SPDKQMAVLPRRERNRQAAAANPENSRGKGRRGQRGKNRGCVLTAIHLNVTDLGLGYETKEELIFRYCSGSCDAAETTYDKILKNLSRNRRLVSDKVGQACCRPIAFDDDLSFLDDNLVYHILRKHSAKRCGCI
notes: Immobilised on a CM5 chip by amine coupling; also called glial cell-line derived neurotrophic factor
B3: rat GFRα-4 variant A-IgGFc fusion protein (Fc fusion)
chain: ASSTEGNRCVEAAEACTADEQCQQLRSEYVAQCLGRAGWRGPGSCVRSRCRRALRRFFARGPPALTHALLFCGCEGPACAERRRQTFAPACAFSGPQLAPPSCLKPLDRCERSRRCRPRLFAFQASCAPAPGSRDGCPEEGGPRCLRAYAGLVGTVVTPNYLDNVSARVAPWCGCEASGNRREECEAFRKLFTRNPCLDGAIQAFDSSQPSVLQDQWNPYQNAG
notes: also called rat GFRα-4-IgGFc; rat GFRα4-IgGFc; not shown: The 243-residue COOH-terminal human IgG1-Fc fusion domain from the vector Signal pIg plus (R&D Systems)
B4: NH2-terminally 6His-tagged recombinant human neurturin (ligand)
chain: HHHHHHARLGARPCGLRELEVRVSELGLGYASDETVLFRYCAGACEAAARVYDLGLRRLRQRRRLRRERVRAQPCCRPTAYEDEVSFLDAHSRYHTVHELSARECACV
notes: Immobilised on a CM5 chip by amine coupling; also called NTN
B5: NH2-terminally 6His-tagged recombinant rat persephin (ligand)
chain: HHHHHHALPGLCRLWSLTLPVAELGLGYASEEKIIFRYCAGSCPQEVRTQHSLVLARLRGQGRAHGRPCCQPTSYADVTFLDDHHHWQQLPQLSAAACGCGG
notes: Immobilised on a CM5 chip by amine coupling; Produced as described in Creedon et al., 1997; also called PSP; rat PSP

Columns and labels:
[1] = target: T2, chicken GFRα-4-IgGFc fusion protein (chicken; human, UniProt P01857-1 99-330 = IgG part, limits assumed); assay: SPR (BIACORE 3000), ligand immobilised, GFRα-IgGFc in solution
T2 construct: domain: human IgG1-Fc fusion domain; also called chicken GFR-4-IgGFc
T2 sequence (P01857 other isoform, or with tags, fused parts or gaps limits assumed): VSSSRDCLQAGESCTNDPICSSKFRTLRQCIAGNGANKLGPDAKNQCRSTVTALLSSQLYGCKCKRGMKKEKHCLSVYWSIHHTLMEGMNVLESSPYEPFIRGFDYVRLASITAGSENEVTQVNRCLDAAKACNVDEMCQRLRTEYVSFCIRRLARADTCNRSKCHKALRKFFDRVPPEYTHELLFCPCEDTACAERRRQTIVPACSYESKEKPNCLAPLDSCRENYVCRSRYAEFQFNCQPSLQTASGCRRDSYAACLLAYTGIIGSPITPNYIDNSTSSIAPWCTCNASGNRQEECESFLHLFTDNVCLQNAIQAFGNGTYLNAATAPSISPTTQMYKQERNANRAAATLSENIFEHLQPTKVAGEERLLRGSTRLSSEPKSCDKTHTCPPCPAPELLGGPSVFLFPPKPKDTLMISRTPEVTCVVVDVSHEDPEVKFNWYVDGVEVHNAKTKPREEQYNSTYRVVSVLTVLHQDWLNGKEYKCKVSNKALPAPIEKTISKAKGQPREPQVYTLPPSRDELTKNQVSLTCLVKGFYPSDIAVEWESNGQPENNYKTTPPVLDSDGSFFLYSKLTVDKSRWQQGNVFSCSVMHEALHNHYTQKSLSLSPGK
Protocol: (§1) Bound protein was eluted with 0.1 M Na-citrate, pH 3.0 and collected into 1 M Tris buffer, pH 8.4 (dilution ratio 1:6). Protein concentration was estimated by absorbance at 280 nm using an extinction coefficient of 1.5. Surface plasmon resonance (SPR) U.S. Ser. No. 10/019,337, filed Dec. 19, 2001 experiments were performed at 25° C. using a BIACORE 3000 instrument (Biacore AB, Uppsala, Sweden). Sensor chip CM5, the amine coupling kit and buffers used were also obtained from Biacore AB. Recombinant PSP, NTN, EVN/ART and GDNF were used as immobilised ligands. Recombinant human GDNF was obtained from R&D Systems Europe Ltd. (Abingdon, UK). NH2-terminally 6His-tagged (SEQ ID NO: 48) recombinant human NTN, rat PSP and human EVN/ART were produced in *E. coli* as described previously (Creedon et al., 1997). The carboxylated matrix of a CM5 sensor chip was first activated with a 1:1 mixture of 400 mM N-ethyl-N'-(3-dimethylaminopropyl)-carbodiimide and 100 mM N-hydroxy-succinimide for 10 min. Recombinant neurotrophic factors were applied onto the activated surface in 10 mM sodium acetate buffer, pH 4.5 at a flow rate of 5 μl/min. Unreacted carboxyl groups were blocked with 1 M ethanolamine-HCl. For binding experiments, soluble GFRα-IgGFc fusion proteins were superfused using the kinject program at 30 μl/min. Concentrations of GFRα-IgGFc used in kinetic experiments were between 1 and 100 nM in Hepes buffered saline (150 mM NaCl, 3.5 mM EDTA sodium salt, 0.005% polysorbate 20, 10 mM Hepes, pH 7.4). The association of the GFRα receptors to the immobilised ligands was monitored for 3 min and the dissociation for 1 min, followed by regeneration with 10 mM glycine buffer. Dissociation was initiated by superfusion with Hepes buffered saline. To improve the quality of sensor data, double referencing was used (Myszka, 1999). Data were analyzed using a global analysis with the BIACORE evaluation software (version 3.0.1). Global analysis calculates the association rate (k_a) and dissociation rate (k_d) simultaneously and the apparent equilibrium dissociation constant (K_D) is then calculated as k_d/k_a. A simple 1:1 Langmuir model was used to fit the data. Specific binding to PSP could be detected with both rat and chicken GFRα-4-IgGFc fusion proteins.

[2] = target: B3; assay: as above
Protocol: as §1

[3] = target: B5; assay: SPR (BIACORE 3000), persephin immobilised
Protocol: Bound protein was eluted with 0.1 M Na-citrate, pH 3.0 and collected into 1 M Tris buffer, pH 8.4 (dilution ratio 1:6). Protein concentration was estimated by absorbance at 280 nm using an extinction coefficient of 1.5. Surface plasmon resonance (SPR) U.S. Ser. No. 10/019,337, filed Dec. 19, 2001 experiments were performed at 25° C. using a BIACORE 3000 instrument (Biacore AB, Uppsala, Sweden). Sensor chip CM5, the amine coupling kit and buffers used were also obtained from Biacore AB. Recombinant PSP, NTN, EVN/ART and GDNF were used as immobilised ligands. Recombinant human GDNF was obtained from R&D Systems Europe Ltd. (Abingdon, UK). NH2-terminally 6His-tagged (SEQ ID NO: 48) recombinant human NTN, rat PSP and human EVN/ART were produced in *E. coli* as described previously (Creedon et al., 1997). […] The association of the GFRα receptors to the immobilised ligands was monitored for 3 min and the dissociation for 1 min, followed by regeneration with 10 mM glycine buffer. […] Data were analyzed using a global analysis with the BIACORE evaluation software (version 3.0.1). Global analysis calculates the association rate (k_a) and dissociation rate (k_d) simultaneously and the apparent equilibrium dissociation constant (K_D) is then calculated as k_d/k_a. […] Specific binding to PSP could be detected with both rat and chicken GFRα-4-IgGFc fusion proteins.

[4] = target: T1, human GFRα-2-IgGFc fusion protein; assay: SPR (BIACORE 3000), NTN immobilised
Protocol: GFRα-IgGFc fusion proteins were purified from the medium of permanently or transiently transfected CHO cells by protein A chromatography. Bound protein was eluted with 0.1 M Na-citrate, pH 3.0 and collected into 1 M Tris buffer, pH 8.4 (dilution ratio 1:6). Protein concentration was estimated by absorbance at 280 nm using an extinction coefficient of 1.5. Surface plasmon resonance (SPR) U.S. Ser. No. 10/019,337, filed Dec. 19, 2001 experiments were performed at 25° C. using a BIACORE 3000 instrument (Biacore AB, Uppsala, Sweden). Sensor chip CM5, the amine coupling kit and buffers used were also obtained from Biacore AB. Recombinant PSP, NTN, EVN/ART and GDNF were used as immobilised ligands. Recombinant human GDNF was obtained from R&D Systems Europe Ltd. (Abingdon, UK). NH2-terminally 6His-tagged (SEQ ID NO: 48) recombinant human NTN, rat PSP and human EVN/ART were produced in *E. coli* as described previously (Creedon et al., 1997). […] The association of the GFRα receptors to the immobilised ligands was monitored for 3 min and the dissociation for 1 min, followed by regeneration with 10 mM glycine buffer. […] Data were analyzed using a global analysis with the BIACORE evaluation software (version 3.0.1). Global analysis calculates the association rate (k_a) and dissociation rate (k_d) simultaneously and the apparent equilibrium dissociation constant (K_D) is then calculated as k_d/k_a. […]

[5] = target: T2, chicken GFRα-4-IgGFc fusion protein; assay: SPR (BIACORE 3000), persephin immobilised, GFRα-4-IgGFc in solution, 1:1 Langmuir global fit, n=3
Protocol: as §1

[6] = target: B3; assay: as above
Protocol: as §1

Binder: B1
binding result [1]: no binding
binding result [2]: no binding

Binder: B2
binding result [1]: no binding
binding result [2]: no binding

Binder: B3
fold lower binding level than chicken GFRα-4-IgGFc [3]: ~20 fold

Binder: B4
binding result [4]: binds
binding result [1]: no binding
binding result [2]: no binding

Binder: B5
Kd [5]: 5.4 nM
koff [5]: 0.00088 s⁻¹
kon [5]: ~230000 M⁻¹ s⁻¹
Kd [6]: 5.9 nM
koff [6]: 0.0012 s⁻¹
kon [6]: ~270000 M⁻¹ s⁻¹
